What was measured:
Assay in all cases: cell_activity
[1] = test system: ZFN 59489 (synthetic construct); conditions: pair with 59488; 6 ug mRNA, activated T cells; 84 at 2 ug, 60 at 0.5 ug
[2] = test system: ZFN 59440 (synthetic construct); conditions: pair with 59441; 6 ug mRNA, activated T cells; 82 at 2 ug, 59 at 0.5 ug
[3] = test system: ZFN 59488 (synthetic construct); conditions: pair with 59489; 6 ug mRNA, activated T cells; 84 at 2 ug, 60 at 0.5 ug
[4] = test system: ZFN 59557 (synthetic construct); conditions: pair with 59558; 6 ug mRNA, activated T cells; 80 at 2 ug, 55 at 0.5 ug
[5] = test system: ZFN 59580 (synthetic construct); conditions: pair with 59581; 6 ug mRNA, activated T cells; 83 at 2 ug, 72 at 0.5 ug
[6] = test system: ZFN 59441 (synthetic construct); conditions: pair with 59440; 6 ug mRNA, activated T cells; 82 at 2 ug, 59 at 0.5 ug
[7] = test system: ZFN 59558 (synthetic construct); conditions: pair with 59557; 6 ug mRNA, activated T cells; 80 at 2 ug, 55 at 0.5 ug
[8] = test system: ZFN 59581 (synthetic construct); conditions: pair with 59580; 6 ug mRNA, activated T cells; 83 at 2 ug, 72 at 0.5 ug

Sequence: GAGGAGGTGGCAGAGGGTACCCCAGCCC (double strand) [CISH exon 2 target of 59489]
- activity [1]: 89 % cleavage

Sequence: CCAGCAAAGGACGAGGTCTAGAAGGCAG (double strand) [CISH exon 2 target of 59440]
- activity [2]: 84 % cleavage

Sequence: GGAAGGCCCCAGCAGGCAAGGGCTGCAT (double strand) [CISH exon 2 target of 59488]
- activity [3]: 89 % cleavage

Sequence: GAGTCCAGACGGAAGCTGGAGTCGGCAT (double strand) [CISH exon 3 target of 59557]
- activity [4]: 84 % cleavage

Sequence: CCGGAAAGGCCAGGATGCGTGGCCTGGA (double strand) [CISH exon 3 target of 59580]
- activity [5]: 82 % cleavage

Sequence: GTGGAGCGGACTGGGCAGCGGCCCCTGT (double strand) [CISH exon 2 target of 59441]
- activity [6]: 84 % cleavage

Sequence: GATGCGTGGCCTGGACAAGCAGTTGGAG (double strand) [CISH exon 3 target of 59558]
- activity [7]: 84 % cleavage

Sequence: ATAGTGCTGCACAAGGCTGACCACATCC (double strand) [CISH exon 3 target of 59581]
- activity [8]: 82 % cleavage
